# Reference: patent publication US20230357323A1, “HUMAN IL23 RECEPTOR BINDING POLYPEPTIDES” (University of Washington, priority 2020, published 2023)
# Where two headings read alike, the source gives them in different places.
# Experiments:
# [1] = biological target: T1, IL-23R (Homo sapiens, UniProt Q5VWK5); test: Surface plasmon resonance (SPR) binding affinity to hIL-23R; parameters: his tag (C); purchased
# T1 sequence (Q5VWK5 24-629): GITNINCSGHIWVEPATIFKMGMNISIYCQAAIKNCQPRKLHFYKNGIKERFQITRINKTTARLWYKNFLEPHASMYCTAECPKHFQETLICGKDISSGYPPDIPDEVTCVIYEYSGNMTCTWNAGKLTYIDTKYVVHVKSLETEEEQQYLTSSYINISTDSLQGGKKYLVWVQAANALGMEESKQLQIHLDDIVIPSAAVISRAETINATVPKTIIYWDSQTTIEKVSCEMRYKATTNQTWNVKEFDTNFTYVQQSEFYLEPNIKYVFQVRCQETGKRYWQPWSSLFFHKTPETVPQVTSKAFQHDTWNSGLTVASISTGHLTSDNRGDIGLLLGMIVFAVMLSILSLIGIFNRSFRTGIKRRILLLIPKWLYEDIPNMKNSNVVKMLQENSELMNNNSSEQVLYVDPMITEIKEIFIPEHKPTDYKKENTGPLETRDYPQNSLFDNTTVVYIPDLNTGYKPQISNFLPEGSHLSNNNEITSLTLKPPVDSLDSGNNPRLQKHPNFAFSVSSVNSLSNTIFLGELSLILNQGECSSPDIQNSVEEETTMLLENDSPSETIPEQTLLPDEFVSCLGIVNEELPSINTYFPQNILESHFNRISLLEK
# [2] = Proteolytic stability in simulated intestinal fluid (SIF), SDS PAGE; type: in vitro ADME; conditions: for SIF t1/2: pH 6.5
# Source text: (§1) While resistance to high heat is important for manufacturing and storage, and resistance to chemical denaturant is a good proxy for stability overall, any oral, gut-restricted IL-23R inhibitor will preferably survive the harsh conditions of the gastrointestinal tract, including high acidity and physiological proteases, to reach the site of action intact. To determine feasibility of oral administration, we therefore more directly assessed the stability of our designed IL-23R inhibitors in simulated gastric fluid (SGF), including the protease pepsin at pH 2, and simulated intestinal fluid (SIF), including proteases trypsin and chymotrypsin at pH 6.5. Proteolysis was assessed qualitatively by SDS PAGE at timepoints up to 24 hours.
# Several reported formulations of simulated intestinal fluid show variable proteolytic activity, and protease activity of human intestinal fluid has not been thoroughly studied. Therefore, as a benchmark for SIF stability, we directly compared our designs to V565-38F, an oral, gut-restricted nanobody inhibitor of TNFa currently in a phase 2 clinical trial for Crohn's disease, in SIF with enzyme concentrations sufficient to degrade this molecule over 24 hours. Design variants with proteolytic stability greater than or equal to V565-38F are likely to be sufficiently stable to enable oral therapy.
# (§2) Simulated intestinal fluid (SIF) was prepared as recommended by Jantratid et al. (termed FaSSIFv2) with the addition of proteases trypsin and chymotrypsin each at 30 μg/mL.^18 This composition is denoted as “1x SIF” in the text. In some instances, designed proteins (pure recombinant protein, or yeast libraries as above) or the comparator V565-38F were so stable that minimal degradation could be detected at the maximum duration (24 hours for SDS PAGE experiments, 90 minutes for cytometry experiments). Therefore, we increased the concentrations of both trypsin and chymotrypsin to increase the rate of digestion; these solutions are denoted as “#x SIF”, where for example “2x SIP” denotes a 2-fold increase in concentration of both trypsin and chymotrypsin (to 60 μg/mL), Simulated gastric fluid was prepared as follows: 600 ug/mL pepsin and 34.2 mM NaCl in water, with […] added to adjust pH to 2.
# For qualitative assessment of proteolytic stability, pure recombinant proteins were digested at 37° C. for 24 hours and proteolytic cleavage assessed by SDS PAGE. From concentrated stock solutions, recombinant proteins were added to stock SGF and SIF solutions to a final concentration of 0.1 mg/mL. Timepoints were taken at 0, 5, 15, 30, 60 minutes, 4 and 24 hours; at each timepoint, samples were removed and immediately mixed with load dye and boiled for 5 minutes at 95° C. to quench protease activity. 5 ug protein (based on initial digest concentration of 0.1 mg/mL) per timepoint were run on 16% Tris-tricine polyacrylamide gels.
# [3] = Proteolytic stability in simulated gastric fluid (SGF), SDS PAGE; type: in vitro ADME
# Source text: as §1, §2
# For qualitative assessment of proteolytic stability, pure recombinant proteins were digested at 37° C. for 24 hours and proteolytic cleavage assessed by SDS PAGE. From concentrated stock solutions, recombinant proteins were added to stock SGF and SIF solutions to a final concentration of 0.1 mg/mL. […]
# [4] = biological target: T2, human IL-23R (hIL-23R) (Homo sapiens, UniProt Q5VWK5); test: Biolayer interferometry (BLI) binding to hIL-23R; conditions: biolayer interferometry binding titrations; read-out: affinity (KD) for hIL-23R
# T2 construct: his tag (C); purchased
# T2 sequence (Q5VWK5 24-629): T1 sequence (Q5VWK5 24-629)
# Source text: Two designs, 23R_A (SEQ ID NO:10) and 23R_B (SEQ ID NO:110), were highly enriched in the final selection pool and were chosen for further biochemical characterization. Both designs are 3-helix bundles (54 and 53 residues, respectively) which incorporate the native Trp hotspot at the N-terminal end of a helix such that IL-23R residue D118 forms a helix-capping hydrogen bond with the Trp hotspot's free backbone amine, similar to the αD helix of p19 (FIG. 1D). In both designs, this central binding helix has a larger interaction surface with hIL-23R, mediated by additional de novo hotspots, than p19. […]
# Variants were first screened for relative binding to hIL-23R with biolayer interferometry (BLI). hIL-23R was immobilized on the BLI sensor tips and binding to each variant in solution at a constant concentration (50 nM) was measured to qualitatively determine relative performance of the variants. For the best-performing variants, binding constants (KD, including kon, and koff) were quantitatively determined with BLI titration experiments in triplicate. […]
# Qualitative and quantitative assessment of binding affinity was performed using biolayer interferometry (ForteBio Octet™ […] and associated software for analysis). […] Kinetic constants were determined from the mathematical fit of a 1:1 binding model.
# [5] = biological target: T1, IL-23R; test: IL-23-mediated cell signaling assay (Promega IL-23 Bioassay luciferase reporter cells); type: cell-based; conditions: IL-23 reporter assay; C-terminal versus N-terminal 6-histidine tag
# Description: FIG. 7. Designed IL-23R inhibitor block IL-23-mediated cell signaling in vitro. Cells engineered to express luciferase downstream of IL-23R (Promega) were pre-incubated for 30 minutes with a titration of each inhibitor, then stimulated with 8 ng/mL human IL-23 cytokine for 6 hours. Luciferase substrate was added, luminescence read, and % inhibition of signaling calculated relative to wells with no inhibitor added. IC50 was calculated using linear regression to fit dose response; values are shown above alongside fold increase in potency relative to a competitor molecule PTG compound C.
# Next, we assessed the ability of IL-23R inhibitors to block IL-23-mediated cell signaling. […] IC50 values were determined using linear regression to fit dose response.
# Commercial IL-23 reporter cells (Promega IL-23 Bioassay) expressing luciferase downstream of IL-23R were used to assess inhibition of IL-23-mediated cell signaling. Cells were plated in the inner wells of 96-well tissue culture treated white plates suitable for reading luminescence. Cells were pre-incubated for 30 minutes with a dilution series of each inhibitor, then treated with the EC80 stimulatory concentration of recombinant human IL-23 cytokine determined in preceding experiments (8 ng/mL; R&D 1290-IL). After 6 hours incubation with human IL-23, luciferase substrate was added and luminescence read. […]
# [6] = trypsin and chymotrypsin, 37° C., SDS PAGE
substance,measurement,setting,value
PEPEKYLQELCKKYYEGKLSQQEAVEEIRKYARKWGLEAWKLVWYFMQCVKRDI [rA11dslf02_M1P_R8Q_K35W],Kd,[1],0.075 nM
same,stability in SIF compared to V565-38F,[2]; SIF with enzyme concentrations sufficient to degrade V565-38F over 24 hours (3x SIF),similarly stable
same,SIF t1/2,[2]; [6],240 to 1440 min
same,stability in SGF compared to V565-38F,[3]; SGF,much more stable
IL-23 cytokine: native ligand; heterodimeric cytokine composed of the p19 subunit and the p40 subunit,Kd,[4],1.7 nM
MEPEKYLRELCKKYYEGKLSQQEAVEEIRKYARKKGLEAWKLVWYFMQCVKRDI [rA11dslf02],SIF t1/2,[2]; simulated gi fluid,60 min
NLWQIFYLLNTCIKRTGDPTCKKLKKALRECEKKGDEKACKELAKKAMKYIRS (NLWQIFYLLNTCIKRTGDPTCKKLKKALRECLKKGDEKACKELAKKAMKYIRS) [B04dslf02],SIF t1/2,[2]; [6],5 to 15 min
PLWQVFYLLNTCIKRTGDPTCKKLAKALRECLKKGDLKACNELADKAVKYINS [B04dslf02IB],Kd,[1],< 0.001 nM
same,effect of C-terminal 6-histidine tag on proteolytic stability,"[2]; SGF or SIF up to 24 hours, C-terminal versus N-terminal 6-histidine tag",greatly enhances the proteolytic stability
same,SIF t1/2,[2]; [6],30 to 60 min
same,effect of C-terminal 6-histidine tag on potency,[5],no effect on potency
mB09dslf01-T48I: best mIL-23R inhibitor after optimization for stability and mIL-23R affinity; T48I variant of mB09dslf01; no SEQ ID given (NLWQIFYCLLTCIKRTGDPTCKKLLKALQEAVKKNDEKAVKELAKKAIKYCRSHHHHHH),3x SIF t1/2,[2]; simulated gi fluid,greater than 24 hours
same,stability in SGF compared to V565-38F,[3],more stable
same,SGF t1/2,"[3]; simulated gi fluid, pH 2",greater than 24 hours
